# In article PMC5450235, “Predicting the targeting of tail-anchored proteins to subcellular compartments in mammalian cells” (Journal of Cell Science, 2017):
# No end group written: not given here. *: point of attachment. FITC = O=C1OC2(c3ccc(O)cc3Oc3cc(O)ccc32)c2ccc(NC(=S)*)cc21
# T1: recombinant full-length human PEX19 (human, UniProt P40855 1-299)
# T1 construct: PEX19, human, full length, cloned into pETM11; also called recombinant PEX19
# T1 sequence (looked up): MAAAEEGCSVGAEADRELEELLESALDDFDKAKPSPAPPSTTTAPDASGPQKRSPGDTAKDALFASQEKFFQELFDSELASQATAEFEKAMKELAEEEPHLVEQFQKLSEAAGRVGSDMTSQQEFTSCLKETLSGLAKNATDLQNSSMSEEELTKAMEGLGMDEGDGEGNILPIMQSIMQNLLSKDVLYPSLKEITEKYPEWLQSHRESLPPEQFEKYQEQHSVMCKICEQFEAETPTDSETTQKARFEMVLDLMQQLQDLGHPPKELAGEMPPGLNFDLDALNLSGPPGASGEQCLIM
# B1: FITC-labelled peptide ACBD5 MUT1 (peptide)
# peptide: {FITC}-SPGVLTFAIIWPFIAQWLVYLYYQRARAKL
# notes: the C-terminal asparagine was removed; also called MUT1 peptide; peptide MUT1; source: synthetic peptide (Genscript)
# B2: FITC-labelled peptide ACBD5 MUT2 (peptide)
# peptide: {FITC}-SPGVLTFAIIWPFIAQWLVYLYYQAAAAKL
# notes: the C-terminal asparagine was removed; also called MUT2 peptide; source: synthetic peptide (Genscript)
# B3: FITC-labelled peptide ACBD5 WT (peptide)
# peptide: {FITC}-SPGVLTFAIIWPFIAQWLVYLYYQRRRRKL
# notes: TMD and tail region of ACBD5; the C-terminal asparagine residue was removed to facilitate peptide synthesis; also called ACBD5-TMD-T WT peptide; source: synthetic peptide (Genscript)
# Target: T1, recombinant full-length human PEX19
# Experiment: fluorescence polarisation; fluorescence anisotropy; FITC peptide at 6.7 nM, protein titrated (dilution series, factor 1.5); 25°C; 50 mM Tris-HCl pH 7.5, 250 mM NaCl, 0.5 mM TCEP with 0.67 mg/ml BSA, no detergent; 1:1 hyperbolic fit
# Conditions: both partners purified
row,Kd [µM],Binder
1,1.9,B1
2,7.7,B2
3,0.9,B3
